From patent US20190031781A1

Legend:
[1] = target: carboxymethyl lysine conjugated to keyhole limpet hemocyanin (CML-KLH); assay: direct binding ELISA, CML-KLH coat 1 ug/mL, antibody at 0.07 ug/mL
[2] = target: carboxymethyl lysine conjugated to keyhole limpet hemocyanin (CML-KLH); assay: direct binding ELISA, CML-KLH coat 1 ug/mL, antibody at 16.67 ug/mL
[3] = target: carboxymethyl lysine conjugated to keyhole limpet hemocyanin (CML-KLH); assay: direct binding ELISA, CML-KLH coat 1 ug/mL, antibody at 1.85 ug/mL
[4] = target: carboxymethyl lysine conjugated to keyhole limpet hemocyanin (CML-KLH); assay: direct binding ELISA, CML-KLH coat 1 ug/mL, antibody at 50 ug/mL
[5] = target: carboxymethyl lysine conjugated to keyhole limpet hemocyanin (CML-KLH); assay: direct binding ELISA, CML-KLH coat 1 ug/mL, antibody at 0.62 ug/mL
[6] = target: carboxymethyl lysine conjugated to keyhole limpet hemocyanin (CML-KLH); assay: direct binding ELISA, CML-KLH coat 1 ug/mL, antibody at 5.56 ug/mL
[7] = target: carboxymethyl lysine conjugated to keyhole limpet hemocyanin (CML-KLH); assay: direct binding ELISA, CML-KLH coat 1 ug/mL, antibody at 0.21 ug/mL

OD450 [1]: 0.086
OD450 [2]: 0.312
OD450 [3]: 0.092
OD450 [4]: 0.462
OD450 [5]: 0.083
OD450 [6]: 0.165
OD450 [7]: 0.075
Substance: carboxymethyl lysine MAb (Clone 318003), R&D Systems, catalog no. MAB3247 (antibody)
